± gives the standard deviation of the averaged measurements.
Test system: ATP
Assay: switch fluorescence ratio, 500 uM ATP over buffer (Cy3 cluster intensity, sum of 5 cycles each) (fold (ratio)); higher = stronger signal-on switching upon ATP binding; sequences stand for … in TCGTCGGCAGCGTCAGATGTGTATAAGAGACAGTTTTTTTTTTTTTTTTTTTTTTTTT…TC
Settings: aptamer strand: ATP DNA aptamer (quencher-CACCTGGGGGAGTATTGCGGAGGAAGG + anchor), 100 nM annealed; ATP concentration: 500 uM
Summary of the method: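 Switching-strand clusters labelled with Cy3 on a modified Illumina MiSeq flow-cell were annealed to 100 nM quencher-labelled ATP aptamer, imaged in selection buffer, and re-imaged after 15 min with 500 uM ATP at 22 °C. This was done over five cycles with NaOH stripping and re-annealing in between. The fluorescence ratio is summed target-cycle over summed buffer-cycle Cy3 intensity per cluster, averaged per switch-domain sequence, excluding clusters outside 100-1000 RFU.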
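Further: ATP exposure 15 min at 22 °C before imaging.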

Row | Sequence | switch fluorescence ratio
1 | GCGTTATTTT | 1.012 ± 0.0076
2 | CGGGATGTTA | 0.996 ± 0.016
3 | GTGTAAGGGG | 0.9943 ± 0.0094
4 | TTGTTACTCG | 0.976 ± 0.048
5 | AGGGCCCCGG | 1.03 ± 0.023
6 | GTTTTGTGGG | 0.968 ± 0.034
7 | CTCAGAGTTT | 1 ± 0.012
8 | GTTGTGGTAT | 0.9785 ± 0.0027
9 | TGGGGTACAC | 0.993 ± 0.024
10 | AGTTTCGGCG | 1 ± 0.02
11 | TGAGTGGGGC | 1.03 ± 0.025
12 | CACTAGATGG | 0.992 ± 0.02
13 | ATTTGCAATT | 1.03 ± 0.034
14 | CTCCGATGAT | 3.03 ± 0.62
15 | CGGTACTGAT | 1.0316 ± 0.00064
16 | TTTGTGTTGT | 1.015 ± 0.0099
17 | TTTCAATTTA | 0.996 ± 0.011
18 | CTGATAGGGA | 1.01 ± 0.019
19 | TTTCGTCCTT | 1.18 ± 0.014
20 | CTGGATAGAA | 1.01 ± 0.033
21 | TGCCGGGTCT | 0.988 ± 0.04
22 | TATTGTGGTT | 1 ± 0.031
23 | TTCGGGCGTG | 0.994 ± 0.024
24 | CGGGACTCCG | 1.02 ± 0.0032
25 | TTTTGAAGTG | 1.02 ± 0.034

Row | Sequence | switch fluorescence ratio
26 | AGTTGGTTAT | 0.974 ± 0.022
27 | AAACTCAACG | 1.08 ± 0.031
28 | TTTGGTTTGG | 1.01 ± 0.036
29 | AATTTAAAAA | 0.986 ± 0.022
30 | AAGGTAGTGG | 0.962 ± 0.017
31 | GGGGAATTTA | 1 ± 0.024
32 | GGGAGCGGGT | 1.04 ± 0.025
33 | GCTTATGAAC | 1.019 ± 0.0045
34 | TTTAAAAA | 1.02 ± 0.044
35 | TCCATTTGGA | 1.02 ± 0.052
36 | TTTTATAT | 0.98 ± 0.03
37 | CGGGGGTGCT | 0.966 ± 0.044
38 | TCGGTTGGTT | 0.967 ± 0.023
39 | TCTGAGATAA | 1.0208 ± 0.00085
40 | CATTGTAATT | 0.981 ± 0.011
41 | CAAGGAGTTA | 1.01 ± 0.04
42 | AAGGGCTATA | 1.01 ± 0.047
43 | TTTATGGGTG | 1.01 ± 0.016
44 | AGGCGATCTG | 1.01 ± 0.041
45 | TAAGGGTTGC | 1.03 ± 0.016
46 | AGCTAGGGGA | 1.08 ± 0.077
47 | ATCGGGCTGC | 1 ± 0.038
48 | TTTTCGTGTT | 1 ± 0.032
49 | ATCATGCGGG | 0.99749 ± 7e-05
50 | CGTTGGTCGC | 1.01 ± 0.016

Row | Sequence | switch fluorescence ratio
51 | GTATACATTG | 1.02 ± 0.027
52 | GGGATTTGCT | 0.963 ± 0.022
53 | TATTATGGCG | 1.04 ± 0.014
54 | CAGCAGCTGG | 1.05 ± 0.034
55 | GAAATTAAGT | 1.02 ± 0.045
56 | GAGCGAGGGG | 0.9836 ± 0.0074
57 | ATTAAAATAT | 1.12 ± 0.19
58 | AAAAAGTCAT | 0.967 ± 0.021
59 | AGTTTTACAG | 1.01 ± 0.02
60 | ACATAGGGGT | 1.01 ± 0.013
61 | TTGGGAGTTA | 0.99379 ± 0.00026
62 | GACTATAGAT | 1.05 ± 0.034
63 | TTACGACTGT | 1.004 ± 0.0014
64 | GATTTGTAAA | 0.99 ± 0.029
65 | AATCGGTTGT | 0.9815 ± 0.005
66 | AGGGAGAAGT | 0.9853 ± 0.002
67 | CTCGTTTTGA | 0.975 ± 0.023
68 | GCGGTGGGGT | 1.01 ± 0.018
69 | GCATTAAAAT | 0.9578 ± 0.0013
70 | CGTAAAAGGC | 0.994 ± 0.027
71 | GTGTACTGGG | 0.993 ± 0.017
72 | GTTATGGCTG | 1.05 ± 0.021
73 | ATTGTGATTG | 0.997 ± 0.038
74 | TTCGGGTTGG | 1.02 ± 0.015
75 | GTAGTTAGGG | 1.02 ± 0.015

Row | Sequence | switch fluorescence ratio
76 | CGGCTTTTTG | 0.991 ± 0.034
77 | TATTGTGCGG | 1.01 ± 0.037
78 | CAGTGGATCG | 1.008 ± 0.0011
79 | TTTCGGGTAG | 1.011 ± 0.0014
80 | TTCGGGATAG | 1.07 ± 0.1
81 | TAAGGGCAAA | 1.02 ± 0.032
82 | CGGTCGCTTG | 1.02 ± 0.032
83 | TAGGAAGGCA | 0.967 ± 0.0024
84 | CCCAATTTGC | 1.32 ± 0.022
85 | GGGGGTTGAT | 0.991 ± 0.069
86 | ATGGGAGTAG | 0.9562 ± 0.0062
87 | TAGAAGAAGG | 0.9842 ± 0.0031
88 | GAGAGTTGGG | 0.985 ± 0.022
89 | CGGGGGCAGG | 1.03 ± 0.07
90 | CGAGAAGGGT | 0.997 ± 0.039
91 | CCAGGATGCG | 0.971 ± 0.035
92 | AGGGGGTTCC | 0.99 ± 0.033
93 | GCATCTCAGC | 0.991 ± 0.038
94 | ATCGGCGGGG | 0.995 ± 0.031
95 | TCGGTGAGGT | 0.9988 ± 0.0027
96 | TCTGTGTATT | 1.03 ± 0.037
97 | GGTTTGGCTG | 0.993 ± 0.038
98 | ATAAGAAACG | 0.946 ± 0.064
99 | TTAGTAATGT | 1.06 ± 0.072
100 | TTTATGCTTT | 1.01 ± 0.024

Row | Sequence | switch fluorescence ratio
101 | AAGGAATGCA | 0.993 ± 0.022
102 | AGGATGTAAA | 1.025 ± 0.0045
103 | TTTAAGAATC | 0.994 ± 0.03
104 | CATAAAATCG | 0.9666 ± 0.0091
105 | TATCTATCCG | 0.985 ± 0.039
106 | AGTGTTGGCC | 1.023 ± 0.0089
107 | ATCCGCGTAG | 2.17 ± 0.017
108 | CTAGGAGGGA | 0.98 ± 0.013
109 | CCGAGTGGAG | 1.083 ± 0.0024
110 | CGGGGGGCGC | 0.969 ± 0.014
111 | GGGATCCGAC | 1.05 ± 0.041
112 | GTTATTCCGG | 1.038 ± 0.0043
113 | GTAATAGAGA | 1.01 ± 0.043
114 | TGCTTTTCTT | 0.996 ± 0.018
115 | TTGAAAATGT | 0.96 ± 0.0076
116 | TACCGGTCGG | 0.999 ± 0.019
117 | GGGTAACTTT | 1.08 ± 0.07
118 | GTGGGTTTTT | 1.01 ± 0.032
119 | GATTTGGGT | 0.997 ± 0.051
120 | GATTCAAGTG | 0.96 ± 0.022
121 | TGGTGGGGGG | 0.997 ± 0.037
122 | TTATGAAGTT | 0.996 ± 0.014
123 | ATGATTACGA | 1.03 ± 0.026
124 | CAATAAGGGG | 1.04 ± 0.1
125 | ACTCTCGAGG | 1.24 ± 0.34

Row | Sequence | switch fluorescence ratio
126 | GCGTGGTCAG | 0.97027 ± 0.00034
127 | GGTTGTCCAG | 0.9966 ± 0.0014
128 | CGATGGGGGC | 0.957 ± 0.068
129 | TGTTAATTGA | 1.01 ± 0.015
130 | TTCGTCAGTT | 0.9992 ± 0.0073
131 | TTTGAGGAAG | 1.01 ± 0.022
132 | TGGGTTCGGT | 0.995 ± 0.0032
133 | ATAAACCGGG | 1.02 ± 0.043
134 | CGGAGTTGAA | 1.07 ± 0.027
135 | TTTGTATTGG | 0.998 ± 0.035
136 | AGGGGTGGGT | 1.04 ± 0.054
137 | ATGTTTGGAG | 0.982 ± 0.018
138 | ATATGAGGGA | 1.01 ± 0.026
139 | TGTTGAAGGG | 1.01 ± 0.014
140 | TTGGATATGT | 0.9573 ± 0.0047
141 | GAACTCTACT | 1.14 ± 0.044
142 | TCATTTATAT | 0.98 ± 0.047
143 | GGTTTGGTG | 1.006 ± 0.0058
144 | TCGGGGCGAG | 1.02 ± 0.023
145 | GGTCGATGAT | 0.98739 ± 0.00068
146 | ATAGTCGCGC | 0.993 ± 0.058
147 | GAATGGGATG | 1.002 ± 0.0023
148 | TAGTATATTT | 0.954 ± 0.018
149 | ATAAATGGGT | 0.9945 ± 0.0025
150 | TGGGCCTCCA | 1 ± 0.036

Row | Sequence | switch fluorescence ratio
151 | CATAGGATTG | 1.0163 ± 0.00094
152 | CTGTAGTTTT | 1.04 ± 0.038
153 | GAGGGATGTT | 1.01 ± 0.0092
154 | TTGTTTTCTT | 1 ± 0.045
155 | GGGGCAACGG | 1.05 ± 0.12
156 | CATGGGGTTA | 1.04 ± 0.048
157 | AATTTGTCCG | 0.992 ± 0.041
158 | TAACCTACCG | 1.41 ± 0.037
159 | ATGTGCTGGG | 0.981 ± 0.031
160 | TGGTAGTTTT | 0.9899 ± 0.0078
161 | GGCAGCCGGC | 1.03 ± 0.041
162 | GACGTTTCTG | 1.01 ± 0.098
163 | TTATGGCTTC | 0.993 ± 0.029
164 | GCACCATCCA | 1.03 ± 0.013
165 | CGGTTTAGCG | 0.98 ± 0.029
166 | TTTGGAATAG | 1.06 ± 0.045
167 | GGAGAGGGCT | 1.01 ± 0.024
168 | AAGATTTGGG | 0.991 ± 0.027
169 | GATTTGCTTT | 0.98 ± 0.013
170 | TTCGAATTAG | 2.28 ± 1.7
171 | TTTCGGATGC | 1.22 ± 0.26
172 | AGCTGACAGT | 0.981 ± 0.0044
173 | TCCGGCGTGC | 1.13 ± 0.23
174 | AGTAAGAGTC | 1.01 ± 0.017
175 | TTTCAATAGG | 1.01 ± 0.024

Row | Sequence | switch fluorescence ratio
176 | TTTCGGTGCT | 1.03 ± 0.049
177 | AATCTGCCTG | 0.99 ± 0.011
178 | CCGGGGAGGT | 1.06 ± 0.1
179 | GTTGAGGTCC | 1.02 ± 0.041
180 | TTGAGGTTGG | 1 ± 0.026
181 | GGGGTGTTGG | 1.01 ± 0.019
182 | AGGGGGATAG | 0.967 ± 0.052
183 | ACAGGCTGCG | 0.995 ± 0.024
184 | CGGAGGAGGA | 0.993 ± 0.038
185 | TATGAAAGTG | 0.983 ± 0.035
186 | AAAGATTGAC | 1.01 ± 0.08
187 | TTAACTGGAA | 0.978 ± 0.031
188 | GCGTTTAATG | 0.977 ± 0.047
189 | ATTGGGTCGT | 0.992 ± 0.021
190 | GCGAAATGTG | 1.03 ± 0.013
191 | TTTGATAGT | 1 ± 0.021
192 | AAGGGAGAAA | 0.984 ± 0.06
193 | GGCCGTATCT | 1.03 ± 0.044
194 | TTCCTAATTG | 1.01 ± 0.012
195 | CGGAGCGACG | 1.03 ± 0.015
196 | GCTGGGGCAA | 1.01 ± 0.037
197 | TTCATAGGCA | 1 ± 0.039
198 | TTTATAAAGT | 0.958 ± 0.032
199 | TTTAATATGA | 0.997 ± 0.035
200 | CAGCGGGTCT | 1.04 ± 0.054

— the supplement of paper PMC10126150
